# Test results: patent US20120207760A1 (THERACLONE SCIENCES, published 2012)
# What was measured:
# [1] = target: T1, hemagglutinin (HA) of influenza A/Solomon Islands/3/06 H1N1 (Influenza A virus A/Solomon …); assay: cell-based or functional assay
# [2] = target: T2, hemagglutinin (HA) of influenza A/Japan/305/57 H2N2 (Influenza A virus A/Japan/305/1957 …, UniProt P03451 16-562); assay: ELISA, inactivated whole virions coated; transfection supernatant set 2
# [3] = target: T1, hemagglutinin (HA) of influenza …; assay: as above
# [4] = target: T2, hemagglutinin (HA) of influenza …; assay: ELISA, inactivated whole virions coated; transfection supernatant set 3
# [5] = target: T1, hemagglutinin (HA) of influenza …; assay: as above
# [6] = target: hemagglutinin (HA) on live influenza A virus A/Solomon Islands/3/06 H1N1 (Influenza A virus A/Solomon …); assay: cell-based or functional assay
# [7] = target: hemagglutinin (HA) on live influenza A virus A/Wisconsin/67/05 H3N2 (Influenza A virus A/Wisconsin/67/2005 …); assay: cell-based or functional assay
# [8] = target: hemagglutinin (HA) on live influenza A virus A/California/4/09 H1N1 (Influenza A virus A/California/04/2009 …); assay: cell-based or functional assay
# [9] = target: T2, hemagglutinin (HA) of influenza …; assay: ELISA, inactivated whole virions coated; transfection supernatant set 4
# [10] = target: T1, hemagglutinin (HA) of influenza …; assay: as above
Binder,% Neutralization [1],OD450 [2],OD450 [3],OD450 [4],OD450 [5],further results
"TCN-522 (3212_I12) (antibody, V domains shown) VH: QVQLQQWGAGLLKPSETLSLTCTVSGGSLTDYSWNWIRQPPGKGLEWIGDTLHNGYTNYNPSLRGRVSISIDTSKNQVSLRLTSVTAADTALYYCARGSGGYGGFDYFGKLRTWDFWGQGTLVTVSS VL: DIQLTQSPSSLSASVGDRVTITCRASQGIRNDLGWYQQKPGNAPKRLIFGASSLQSGVPSRFSGSGSGTEFTLTISSLQPEDFATYYCLQHNSYPYTFGQGTKLEIK",33%,0.61 OD450,3.48 OD450,–,–,–
"TCN-527 (5086_C06) (antibody, V domains shown) VH: QVQLQESGPGLVKPSETLSLNCAVSGGSISNYYWSWIRQPPGKGLEWIGYISYNGRPKYNPSLTSRVTISVDTSKDQFSLELRSVTAADTALYYCARETRFGELLSPYDAFEIWGQGTMVTVSS VL: DIQMTQSPSSLSASVGDRVTMTCRASQNIRSYLNWYQQRPGTAPKLLIYAASTLHSGVPSRFSGGGSGTDFTLTINNLQPEDFASYYCQQSYDNPQTFGQGTKVEIK",12%,3.63 OD450,3.69 OD450,–,–,–
"TCN-528 (5087_P17) (antibody, V domains shown) VH: QVQLVQSGSEVKKPGASVKVSCKASGYTFTNYDINWIRQAPGQGLEWMGWINPNSGTTGSAQRFQGRVTITVDTSITTVYMELSSLRSDDTAIYYCARGRELLRLQHFLTDSQSERRDCFDPWGQGTLVTVSS VL: DIQMTQSPSSLSASVGDRVTITCRANQDIGIYLNWYQQNPGKVPKLLLHGASSLQGGVPSRFSASGSGTDFTLTIHSLQPEDLATYYCQQSRRLPYTFGQGTRVELK",0%,3.64 OD450,3.66 OD450,–,–,–
"TCN-529 (5297_H01) (antibody, V domains shown) VH: QITLRESGPTLVKPTQTLTLTCTFSGFSLSTNGVNVGWIRQPPGKALEWLALIYWDDDKRYSPSLKRRLTITKDTSKNQVVLTLTNMDPVDTATYYCAHRPDFYGDFEYWGPGTLVTVSS VL: QSALTQPASVSGSPGQSITISCTGSSSDIGGYNYVSWYQQHPGKAPKLMIYDVNNRPSGVSNRFSGSKSGNTASLTISGLQTDDEADYYCGSYTGSPHYVFGTGTKVTVL",0%,–,–,0.1 OD450,0.16 OD450,–
"TCN-542 (5079_A16) (antibody, V domains shown) VH: QVQLQESGPGLVKPSQTLSLTCTVSGGSISSGNYYWNWVRQHPGKGLEWIGYIYYRGSTFYNPSLKSRVTISIDTSKNQFSLRLSSVTAADTAVYYCAKDTRSSLDNYQYGMDVWGQGTTVTVSS VL: QTVVTQEPSLTVSPGGTVTLTCASSTGAVTSSYFPNWFQQKPGQAPRPLIYSTTIRHSWTPARFSGSLLGGKAALTLSGVQPEDEADYYCLLYSGGDPVAFGGGTKLTVL",–,–,–,–,–,% Neutralization [6]: 99%; % Neutralization [7]: 8%; % Neutralization [8]: 15%
"TCN-546 (5089_L08) (antibody, V domains shown) VH: QVQLQQWGAGLLKPSETLSLTCGVYGGSLSDYYWSWIRQPPGKGLEWIGEINHSGGTNYNPSLKRRVTISVDTSKKQFSLKMNSVTAADTAVYYCARGTDPDTEVYCRAGNCAAFDFWGQGTLVTVSS VL: EIVLTQSPGTLSLSPGERATLSCRASHFVIGRAVAWYQQKPGQAPRLLIYGASSRATGIPDRFSGSGSGTDFTLTISRLETEDFAVFYCQHYGSSPRYAFGQGTKLEIK",–,–,–,–,–,% Neutralization [6]: 98%; % Neutralization [7]: 100%; % Neutralization [8]: 0%
"TCN-530 (5248_H10a) (antibody, V domains shown) VH: QVQLVQSGAEVRKPGSSVKVSCKASGGPFMSYAIGWVRQAPGQGLEWMGGINPVFGRPHYAQKFQGRVTIATDDSTKTSYMELSSLTSEDTGMYYCASRYSRSSPGTFESWGQGTLVTVSS VL: EIVMTQFPATLSVSPGERVTLSCRASQSVSNNLAWYQQKPGQPPRLLIYDASTRATGVPAKFSGTGSGTEFTLSISSLQSEDFAVYYCQQYHNWPPSYSFGLGTKLEIK",64%,–,–,3.43 OD450,3.62 OD450,–
"TCN-531 (5091_H13) (antibody, V domains shown) VH: EVQLVESGGDLVQPGRSLKLSCTGSGFTFGDYGVTWVRQAPGKGLEWVGFIRTRPWGGTADTAASVKGRFTISRDDSKSLAYLQMNSLKTEDTAVYYCCRDAPPNVEVASMTNWYFDLWGRGTLVTVSS VL: DIQLTQSPSSLSASVGDRVTITCRASQGILNCLAWYQQKPGKVPNLLMYAASTLQSGVPSRFSGSGFGTDFTLTISSLQPEDVATYYCQTYGGVSTFGGGTKVEIR",65%,–,–,0.09 OD450,0.1 OD450,–
"TCN-532 (5262_H18) (antibody, V domains shown) VH: QVQLQESGPGLVKPSETLSLTCTVSGGSVSSETYYWSWIRQPPGKGLEWIGYIYYIGNTDYRPSLKSRVTISLDTSKNQFSLKLSSVTAADTAVYYCARGAYYDSSGYPAFYIWGQGTMVTVSS VL: QSVLTQPPSVSGAPGQRVTISCTGSSSNIGSDYDVHWYKQLPGTAPKLLIFGNSNRPSGVPDRFSGSKSGTSASLAITGLQAEDEADYYCQSYDSSLSGFHVFGSGTKVTVL",11%,–,–,0.08 OD450,0.13 OD450,–
"TCN-533 (5256_A17) (antibody, V domains shown) VH: QVQLVQSGADVKKPGSSVTVSCKASGGSFSNYGINWVRQAPGQGLEWMGGIIPLINAPNYAPKFQGRVTITADMFSNIVSLQLTSLRTDDTAVYYCARRKMTTAIDYWGQGTLVTVSS VL: QPVLSQPPSASASLGASVTLTCTLSSGFDNYQVAWYQQRPGKGPRFVMRVGNGGNVASKGDGIPDRFSVSGSGLNRYLTIKNIQEDDESDYYCGADHGSGNNFVSPYVFGGGTKLTVL",56%,–,–,3.65 OD450,3.61 OD450,–
"TCN-534 (5249_B02) (antibody, V domains shown) VH: QVQLVQSGAEVKKPGSSVKVSCRESGGTFNGYTITWVRQAPGQGLEWMGGIIPMMGTVNYAQKLQGRVTITTDYFTKTAYMDLNNLRSEDTAMYYCVKIRYTGQQLLWGQGTLVTVSS VL: DIQMTQSPSTLSASIGDRVTITCRASQSIASWLAWYQQKPGKAPKLLIYEAVNLESGVPSRFSGSGSGTDFTLTISSLQPDDFATYFCQHYGTISQTFGGGTKVEIK",86%,–,–,–,–,OD450 [9]: 2.45 OD450; OD450 [10]: 3.5 OD450
"TCN-535 (5246_P19) (antibody, V domains shown) VH: QVQLVQSGSEVKKPGTSVKVSCTASGSVFTNYGISWVRQAPGQGLEWMGGIIPLFGAAKYAQKFQGRVTITADESTKTVYMELSRLTSKDTAIYFCAKAPRVYEYYFDQWGQGTPVTVSS VL: EIVLTQSPGTLSLSPGERATLSCRASQSVSSSQLAWYQQKPGQAPRLIIYGASTRATGIPDRFSGSGSGTDFTLTIGRLEPEDFAVFFCQQYSTSPPTFGQGTKVDFK",82%,–,–,–,–,OD450 [9]: 2.45 OD450; OD450 [10]: 3.52 OD450
"TCN-536 (5095_N01) (antibody, V domains shown) VH: QVQLQQWGAGLLKPSETLSLTCAVYGGSFSVSGYYWSWIRQPPGRGLEWIGEISHGGSTNYNPSLKSRVTISVDTTKNQFSLRLSSVTAADTAVYYCARGTDPDTEVYCRVGNCAAFDYWGQGSLVTVSS VL: EIILAQSPGTLSLSPGERATLSCRASQFVSTRSLAWYQQRPGQAPRLLIYGASSRATGIPDRFSGSGSGTDFTLTISRLEPEDFAVYYCQHYGYSPRYAFGQGSKVEIK",75%,–,–,–,–,OD450 [9]: 0.06 OD450; OD450 [10]: 3.52 OD450
"TCN-563 (5237_B21) (antibody, V domains shown) VH: QVQLAQSGAEVKRPGSSVKVSCTASGGIFRKNAISWVRQAPGQGLEWMGGIIAVFNTANYAQKFQGRVKITADESGNTAYMELSSLRSDDTAVYYCASHPKYFYGSGSYPDFWGQGTLVTVSS VL: QSALTQPRSVSGSPGQSVTISCTGSSSDVGASNSVSWYQQHPGKAPKLVIYDVTERPSGVPHRFSGSKSGNTASLTVSGLQPEDEADYFCCAYGGKYLVVFGGGTKVTVL",78%,0.84 OD450,3.6 OD450,–,–,–
"TCN-526 (5084_C17) (antibody, V domains shown) VH: EVLMVESGGGLVQPGGSVRLSCVASGFSFSSHWMTWVRQAPGKGLEWVANIEDDGGDKYYVDSVKGRFIISRDNAKNSVYLQMNSLRAEDTAVYFCARGSGSSDRSDYDPHYYYYLDVWGKGATVTVSS VL: DIQLTQSPSSLSASVGDRVTITCRASQSISRYLNWYQQKPGKAPKLLLFAASTLLDGVPSRFSGSGSGTDFTLTISSLQPEDFATYYCQRNHSPSWTFGQGTRVEIK",0%,0.07 OD450,0.08 OD450,–,–,–
